Measurements published in patent US20050026219A1, “Process for label-free measurement of modified substrate” (Boehringer Ingelheim Pharma GmbH & Co. KG, priority 2001, published 2005).
“And” between values parts separate entries of the source, which are not always exact repeats. Identical values can stand only once.

Columns and labels:
[1] = molecular target: Poly-(Glu, Tyr) 4:1 (MW: 39100, Messrs. Sigma; CAS number 97105-00-5); assay: RIfS solution competition: antibody incubated with mixture (PGT 10 ug/50 ul, EGF-RK 0.1 Unit/50 ul, EGF 0.5 ug/50 ul, no ATP), free antibody read on phosphotyrosine-diamino-PEG 2000 sensor; high value = antibody not taken up by substrate
[2] = molecular target: oligopeptide Ac-Ile-Tyr-Gly-Glu-Phe-NH2 "M-2165" (Messrs. Bachem, MW 668.8); assay: RIfS solution competition: M-2165 10 ug/50 ul, p60c-src-kinase 2 Units/50 ul, no ATP; free antibody read on phosphotyrosine-diamino-PEG 2000 sensor
[3] = molecular target: Poly-(Glu, Tyr) 4:1 (MW: 39100, Messrs. Sigma; CAS number 97105-00-5); assay: RIfS solution competition: PGT 10 ug/50 ul, EGF-RK 1 Unit/50 ul, no ATP, no inhibitor (control of the staurosporin series); phosphotyrosine-diamino-PEG 2000 sensor
[4] = molecular target: Poly-(Glu, Tyr) 4:1 (MW: 39100, Messrs. Sigma; CAS number 97105-00-5); assay: RIfS solution competition: PGT 10 ug/50 ul, EGF-RK 1 Unit/50 ul, no ATP, no inhibitor (control of the Tyrphostin 47 series); phosphotyrosine-diamino-PEG 2000 sensor
[5] = molecular target: phosphorylated Poly-(Glu, Tyr) 4:1 (after reaction with EGF-RK and ATP); assay: RIfS solution competition: PGT 10 ug/50 ul, EGF-RK 1 Unit/50 ul, ATP, no inhibitor (erbstatin analogue series); phosphotyrosine-diamino-PEG 2000 sensor
[6] = molecular target: phosphorylated Poly-(Glu, Tyr) 4:1 (after reaction with EGF-RK and ATP); assay: RIfS solution competition: PGT 10 ug/50 ul, EGF-RK 1 Unit/50 ul, ATP, no inhibitor (genistein series); phosphotyrosine-diamino-PEG 2000 sensor
[7] = molecular target: Raytide EL (protein-tyrosine-kinase substrate, MW 2476 Dalton, Messrs. Calbiochem); assay: RIfS solution competition: Raytide EL 2 ug/50 ul, EGF-RK 0.5 Units/50 ul, no ATP; free antibody read on phosphotyrosine-diamino-PEG 2000 sensor
[8] = molecular target: Poly-(Glu, Tyr) 4:1 (MW: 39100, Messrs. Sigma; CAS number 97105-00-5); assay: RIfS solution competition; mean of the two mixtures without ATP of Table 10
[9] = molecular target: phosphorylated Poly-(Glu, Tyr) 4:1 (after reaction with EGF-RK and ATP); assay: RIfS solution competition: PGT 10 ug/50 ul, EGF-RK 1 Unit/50 ul, ATP, no inhibitor (staurosporin series); phosphotyrosine-diamino-PEG 2000 sensor
[10] = molecular target: Poly-(Glu, Tyr) 4:1 (MW: 39100, Messrs. Sigma; CAS number 97105-00-5); assay: RIfS solution competition: PGT 10 ug/50 ul, EGF-RK 1 Unit/50 ul, no ATP; free antibody read on phosphotyrosine sensor
[11] = molecular target: phosphorylated Poly-(Glu, Tyr) 4:1 (after reaction with EGF-RK and ATP); assay: RIfS solution competition: PGT 10 ug/50 ul, EGF-RK 1 Unit/50 ul, ATP, no inhibitor (Tyrphostin 47 series); phosphotyrosine-diamino-PEG 2000 sensor
[12] = molecular target: Poly-(Glu, Tyr) 4:1 (MW: 39100, Messrs. Sigma; CAS number 97105-00-5); assay: RIfS solution competition: PGT 10 ug/50 ul, EGF-RK 1 Unit/50 ul, no ATP, no inhibitor (control of the genistein series); phosphotyrosine-diamino-PEG 2000 sensor
[13] = molecular target: phosphorylated Poly-(Glu, Tyr) 4:1 (after reaction with EGF-RK and ATP); assay: RIfS solution competition: PGT 10 ug/50 ul, EGF-RK 2 Units/50 ul, ATP; free antibody read on phosphotyrosine-diamino-PEG 2000 sensor; lower value = antibody taken up by phosphorylated substrate
[14] = molecular target: phosphorylated Raytide EL (after reaction with EGF-RK and ATP); assay: RIfS solution competition: Raytide EL 2 ug/50 ul, EGF-RK 0.5 Units/50 ul, ATP; free antibody read on phosphotyrosine-diamino-PEG 2000 sensor; lower value = antibody taken up by phosphorylated substrate
[15] = molecular target: Poly-(Glu, Tyr) 4:1 (MW: 39100, Messrs. Sigma; CAS number 97105-00-5); assay: RIfS solution competition: PGT 10 ug/50 ul, EGF-RK 2 Units/50 ul, no ATP; free antibody read on phosphotyrosine-diamino-PEG 2000 sensor
[16] = molecular target: phosphorylated Poly-(Glu, Tyr) 4:1 (after reaction with EGF-RK and ATP); assay: RIfS solution competition; mean of the six complete mixtures of Table 10
[17] = molecular target: phosphorylated Poly-(Glu, Tyr) 4:1 (after reaction with EGF-RK and ATP); assay: RIfS solution competition: antibody incubated with mixture (PGT 10 ug/50 ul, EGF-RK 0.1 Unit/50 ul, EGF 0.5 ug/50 ul, ATP), free antibody read on phosphotyrosine-diamino-PEG 2000 sensor; lower value = antibody taken up by phosphorylated substrate
[18] = molecular target: oligopeptide Ac-Ile-Tyr-Gly-Glu-Phe-NH2 "M-2165" (Messrs. Bachem, MW 668.8); assay: RIfS solution competition: M-2165 10 ug/50 ul, p60c-src-kinase 4 Units/50 ul, no ATP; free antibody read on phosphotyrosine-aminodextrane (AMD) sensor

- Optical layer thickness in nm [1]: 2.59 nm
- Optical layer thickness in nm [2]: 3.2 nm
- Optical layer thickness in nm [3]: 2.99 nm
- Optical layer thickness in nm [4]: 2.3 nm
- Optical layer thickness in nm [5]: 0.852 nm
- Optical layer thickness in nm [6]: 0.446 nm
- Optical layer thickness in nm [7]: 3.11 nm
- optical layer thickness in nm (mean value) [8]: 2.16 nm
- Optical layer thickness in nm [9]: 0.233 nm
- Optical layer thickness in nm [10]: 2.06 nm and 2.27 nm
- Optical layer thickness in nm [11]: 0.613 nm
- Optical layer thickness in nm [12]: 2.4 nm
- Optical layer thickness in nm [13]: 0.225 nm
- Optical layer thickness in nm [14]: 1.83 nm
- Optical layer thickness in nm [15]: 2.65 nm
- optical layer thickness in nm (mean value) [16]: 0.19 nm
- Optical layer thickness in nm [17]: 2.04 nm
- Optical layer thickness in nm [18]: 3.81 nm
Substance: monoclonal murine antibody IgG1 from Ascites: Anti-PhosphoTyrosine (Clone number: PT-66, Messrs. Sigma)
